Data: patent publication US6022708

Key:
[1] = biological target: transcription factor GLI, the mammalian homologue of the Drosophila cubitus interruptus (Ci)
[2] = biological target: Myelin Basic Protein (Sigma)

“human fused (wild type, full length), HA epitope tagged” showed a GLI activity, luciferase reporter p9XGliLuc in C3H10T1/2 cells [1] of 9.5 fold.

Substance “human fused (wild type, full length), HA epitope tagged (enzyme)” has an amount of 32P incorporated into MBP, in vitro kinase assay on anti-HA immunoprecipitates (times higher compared to controls) [2] of 2.

Substance “fused KD (kinase domain of human fused alone), HA epitope tagged (enzyme)” has an amount of 32P incorporated into MBP, in vitro kinase assay on anti-HA immunoprecipitates (times higher compared to controls) [2] of 3.
